# Measured values reported in patent US20160194407A1 (AstraZeneca / MedImmune, published 2016).
# T1: CD73 construct with chicken N- and C-terminal domain sequence and knocked-in human V144 and N185
# T1 construct: K180 is conserved between chicken and human; also called chicken CD73 replaced with V144 and N185; knock-in
# T1 chain: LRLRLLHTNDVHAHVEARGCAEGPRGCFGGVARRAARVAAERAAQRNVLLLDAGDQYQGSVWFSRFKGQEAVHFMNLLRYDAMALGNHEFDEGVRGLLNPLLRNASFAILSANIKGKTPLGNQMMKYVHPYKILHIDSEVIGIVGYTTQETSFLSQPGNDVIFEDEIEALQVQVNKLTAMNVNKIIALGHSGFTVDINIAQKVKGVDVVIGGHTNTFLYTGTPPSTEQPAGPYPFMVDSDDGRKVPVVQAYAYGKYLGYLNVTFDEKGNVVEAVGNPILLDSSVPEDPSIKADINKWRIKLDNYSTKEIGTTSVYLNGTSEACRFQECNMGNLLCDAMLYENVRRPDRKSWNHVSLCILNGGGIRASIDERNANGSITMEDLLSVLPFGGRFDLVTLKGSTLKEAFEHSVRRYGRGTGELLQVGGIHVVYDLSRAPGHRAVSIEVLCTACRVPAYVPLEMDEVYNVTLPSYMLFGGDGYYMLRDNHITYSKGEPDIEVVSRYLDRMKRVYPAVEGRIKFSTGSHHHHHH
# T2: recombinant mature human CD73 (amino acid positions 1-526) with C-terminal 6x-histidine tag (human, UniProt P21589 27-553)
# T2 sequence: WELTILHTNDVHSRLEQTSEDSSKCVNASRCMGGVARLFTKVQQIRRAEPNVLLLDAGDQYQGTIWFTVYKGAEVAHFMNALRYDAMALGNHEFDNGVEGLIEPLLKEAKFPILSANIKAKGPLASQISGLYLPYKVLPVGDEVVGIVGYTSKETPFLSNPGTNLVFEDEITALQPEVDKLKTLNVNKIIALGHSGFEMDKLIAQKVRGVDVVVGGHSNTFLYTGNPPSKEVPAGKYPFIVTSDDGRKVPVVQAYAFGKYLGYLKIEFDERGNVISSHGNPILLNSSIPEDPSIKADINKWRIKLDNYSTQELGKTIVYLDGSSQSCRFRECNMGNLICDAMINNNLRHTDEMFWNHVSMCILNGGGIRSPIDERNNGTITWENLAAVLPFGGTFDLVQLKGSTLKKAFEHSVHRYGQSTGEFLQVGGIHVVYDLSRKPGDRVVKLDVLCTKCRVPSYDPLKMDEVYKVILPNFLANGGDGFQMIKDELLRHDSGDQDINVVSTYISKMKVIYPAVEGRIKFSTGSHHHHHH
# B1: MEDI9447 (antibody, V domains shown)
# VH: EVQLLESGGGLVQPGGSLRLSCAASGFTFSSYAYSWVRQAPGKGLEWVSAISGSGGRTYYADSVKGRFTISRDNSKNTLYLQMNSLRAEDTAVYYCARLGYGRVDEWGRGTLVTVSS
# VL: QSVLTQPPSASGTPGQRVTISCSGSLSNIGRNPVNWYQQLPGTAPKLLIYLDNLRLSGVPDRFSGSKSGTSASLAISGLQSEDEADYYCATWDDSHPGWTFGGGTKLTVL
# notes: also called clone 10.3 antibody; 73combo3
# Columns and labels:
# [1] = molecular target: T1, CD73 construct with chicken N- and …; experiment: SPR ProteOn, His-tagged CD73 variant on HTG chip
# Description: CD73 crude cell supernatant protein samples were diluted to 3 μg/ml in PBS, 0.005% Tween-20, pH 7.4 (BioRad) and immobilized to ˜400 RU on a HTG tris-NTA sensor chip (BioRad) pre-activated with 10 mM NiSO₄, 10 mM MES, pH 6.0 (BioRad). An equivalently diluted crude cell supernatant sample from non-transfected cells was included as a reference channel control. […] Antibody binding was measured at a flow rate of 100 μL/min with a 3 min association phase and 20 min dissociation phase. The sensor chip surface was regenerated between each run by an 800 s injection of 300 mM EDTA, pH 8.5 (BioRad) at a flow rate of 30 μL/min. Binding kinetics were analyzed using the ProteOn data analysis software. Double referencing was performed and, unless noted otherwise, a 1:1 Langmuir binding model was utilized to fit the data. […] Where noted, these variants were fit with a heterogenous antigen (2:1) model.
# [2] = molecular target: T2, recombinant mature human CD73 (amino …); experiment: cell-based or functional assay
# [3] = molecular target: T1, CD73 construct with chicken N- and …; experiment: SPR ProteOn, MEDI9447 dilutions from 5 nM to 0.3 nM
# Description: CD73 crude cell supernatant protein samples were diluted to 3 μg/ml in PBS, 0.005% Tween-20, pH 7.4 (BioRad) and immobilized to ˜400 RU on a HTG tris-NTA sensor chip (BioRad) pre-activated with 10 mM NiSO₄, 10 mM MES, pH 6.0 (BioRad). An equivalently diluted crude cell supernatant sample from non-transfected cells was included as a reference channel control. […] Antibody binding was measured at a flow rate of 100 μL/min with a 3 min association phase and 20 min dissociation phase. The sensor chip surface was regenerated between each run by an 800 s injection of 300 mM EDTA, pH 8.5 (BioRad) at a flow rate of 30 μL/min. Binding kinetics were analyzed using the ProteOn data analysis software. Double referencing was performed and, unless noted otherwise, a 1:1 Langmuir binding model was utilized to fit the data.
binder,measurement,setting,value
B1,Kd,[1],0.079 nM
same,"inhibition of sCD73 hydrolysis of AMP (CellTiterGlo), dose response",[2],~1 IgG per sCD73 dimer (molar ratio)
same,fold of the KD for wild-type CD73,[3],< 20 fold
